Source: the RNAGym collection of RNA variant scans (doi:10.1073/pnas.2313332121)

B1: TPR t1 (parent)
chain: GACCAAUCUGCCCUCAGAGCUCGAGAACAUCUUCGGAUGCAGAGGAGGCAGGCUUCGGUGGCGCGAUAGCGCCAACGUCCUCAACCUCCAAUGCAUCCCACCACAUGAUGAUGCCUGAAGAGCCUUGGUUUUUUG

Variants of: B1
Experiment: polymerase ribozyme fitness, log enrichment relative to wild type (log ratio); higher = more active; in vitro selection for triplet polymerase activity
Summary of the method: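 Each subunit of a heterodimeric triplet polymerase ribozyme was mutagenized into a library by PCR, transcribed, and subjected to one round of in vitro selection, run in triplicate. Libraries were annealed with a biotinylated primer, the partner subunit and triplets, incubated frozen at −7 °C, and extended constructs were gel-excised, captured on streptavidin beads and recovered by RT-PCR. Input and output libraries were sequenced on Illumina, keeping genotypes with ≥10 input reads and ≥1 read per output. Fitness is log base 2 of genotype enrichment divided by wild-type enrichment, from inverse-variance-weighted replicate averages.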

Variant	polymerase ribozyme fitness (log ratio)
G42A C62U	-2.15
A43G C72A	-1.13
A41U C56U U78G	-1.47
G42A C72A C114U	-2.37
G42C A43C G71A U81A G120U	-6.28
G42C G93A C97U C115U	-5.15
A41U G45A U55C G71A	-3
G42C A46U G60C	-2.77
A43C C62U A84G	-5.86
A41G A91U	-1.63
A43U C49G C72A C86A	-2.29
A41U C64U U87C U106C C123A	-1.38
A43U C56G C114U	-2.92
G42U G110U	-3.71
G42C G61A C82U U116A	-4.34
G44A A68G	-3.75
A41U G69C	-4.05
A41U G113A	-1.81
G42A U78A U87C C114U	-2.27
A41U C56A C72U U92G	-1.3
A41G G51U C114G	-5.83
A43G G51C C72U U78G C79A U112A	-5.74
A41G C64U A91U U106A G110A	-5.83
A43G U54C C88U	-1.48

Variant	polymerase ribozyme fitness (log ratio)
A43G G44U C49G U96A	-2.32
G42A G45U C82U C89U A90U A118G	-1.67
A43G C82G U87C G93U	-6.73
A43U U131A	-1.44
A41G G117U	-2.99
G42U A74C G117U	-4.16
G42U C64U	-1.54
A41U A84U C88A	-3.83
G42U C49A G77A C123G G135U	-1.82
A43U G120C	-0.477
G42C A46C C62U A95G U96G	-4
G42A G48C C56G C86U C101G	-4.3
G42A A43C	-2.41
A43C C85A C101A	-5.53
A41U C124G U129A	-0.389
G42A G63C U133G	-3.43
G44A C53A C56A	-1.42
A41U C70A U78G C123U	-3.32
A41U A105C	-5.02
G42U C53A A84C C86U A90U U131G U132C	-1.34
A43C C114U G122A	-3.24
A41U G52C C124U U131C G135U	-1.81
G44A A46U G47C A74G G93A	-3.83
A41G G47U G120A	-3.73

Variant	polymerase ribozyme fitness (log ratio)
A43G C56G C82A A84C C114U	-3.15
A41G C73G U87C C104U C115A C123G G135A	0.00105
G42A A66U C79U	-3.79
G42U G57U	-1.5
A41U A68G	-5.2
G42C G127U	-2.05
A43U C56G C64U	-2.1
A41G G51A A90C	-5.76
A41U G52A C62U G117U	-5.18
G42C A46U	-2.24
G42U G61U U92A C94A	-3.57
A43U A111U	-4.27
G42C A43C C115A	-1.55
G42A C64U U109A	-6.32
G42C G58A G120U	-1.82
A43U G57C C98U U126A	-4.59
A43G C62U C72A G113C	-2.93
G42U C102A	-5.37
A41U G57U C86G C123U	-4.13
A43U C104A A118U	-4.29
G42U C124U	-0.586
A41U C64U C73U U106C	-1.79
A41U A43U G69C G77C G93A C124G U131A	-1.81
A41U U96G	-2.51

Variant	polymerase ribozyme fitness (log ratio)
G42A G45U A68G C82U C89U A90U A118G	-4.62
A41U G45C C53G C79U C97U	-6.18
G42U G60A	-2.16
G42A G71U	-2.41
G42A C72G C88G	-3.92
A41G G63A A75G C85A U133A	-3.04
G42A G69U	-0.125
A41G C102U	-3.18
G42U A43C G60A C89A	-2.03
A43U G45U C115G	-3.44
G44A A103G A105U G117A	-6.51
A43C C82A	-2.48
A41U C98U	-2.83
G42A A111G G113C A121C	-0.948
G42A A46U G48A G63A A118U	-3.82
G42A C73U	-1.61
A43U G45A C56G G113A	-0.304
A43C G61A C101G	-4.23
A43U C123G	0.036
G42A G128C	-4.63
G42U G45C C70U A83G	-5.2
A43G A84U	-1.9
G42A C85U	-2.41
A43U C70A	-3.22

Variant	polymerase ribozyme fitness (log ratio)
G42A U81A	-4.25
A41U C99U C124U	-5.19
A43G U55C C62U U109A G135C	-5.8
G44A C49U G71A G117C U133G	-5.02
A43U G45A C53U C56G A84U	-2.19
G42U C123A	-1.18
G42C U112A	-0.562
A41U G42C A95C	-4.1
A41U	-1.14
G42U	-1.31
G42A	-1.69
G42C	-1.3
G42U G48A G110C A111G	-6.19
A41U C123G	0.0535
G44A A50G C73U	-0.0837
G42A U55C	-2.24
A43C U125G	-2.24
G42U C88G C101A G120C	-3.53
A43G G61U C82G	-2.27
A43C C56U U78C U125A	-3.15
A43U G47U C72U U92A C104G C114G	-7.84
G42C G57A	-3.88
G42U G52U A105C	-6.66
G44A A46U G47C A74G	-1.99

Variant	polymerase ribozyme fitness (log ratio)
G42A G45C G69U C123U	-0.482
A41U G71C G117U	-5.03
A43C A46U	-2.91
A43G C115A G135C	-3.27
A41G C79G C114A	-5.3
A43U A46G U106A	-2.63
A43U A46G U55G	-1.34
A43U G58U U126G	-3.62
A43U A50G C72A G93C A95C C115U	-4.47
G42U G45C A50G C82U A121G	0.685
G42U C53U G60U G110U	-3.64
A43C C64U	-1.64
A43U G52U A68G	-4.56
A43C U129G	-3.27
A43G C114G G135U	-3.37
G42A G61U	-2.48
G42A C70A C88G	-6.71
A41U C115U G127A	-3.9
A41U G63U	-2.33
G42A A83U	-2.65
A43G G60U	-1.12
A43U C56A C85G U133A	-4.39
A43U C102A C114A	-5.12
A41U U78C A121G U131G	-0.28

Variant	polymerase ribozyme fitness (log ratio)
A41U G61A	-1.07
A41U C89U	-1.32
G42A C79G G113A	-4.19
G42U G63U	-3.48
G42C G48A C72G G120A	-1.67
G42C G44U C64G G113U	-5.99
G42C G117C	-4.02
G42U C53U C62U G110A	-3.9
G42A A50U C73A C123U	-2.52
A43U G44U A74U U87A	-5
A43G C72U U112C G122U	-0.894
G42A C70A A84U U92C U96A C102G C124G	-6.77
A43C U59C C80A	-6.52
G42A U129A	-3.37
A43G G57U C88A C104A G120U	-5.76
A43C G44U G113A	-3.01
A43G C62U C73U A84C U92A A118U U132C G135C	-2.69
A43U C94A	-1.82
A41U G61A C102A U133G	-3.96
A43C G61C	-5.34
A43C G61U	-2.24
A43U C49A	-1.86
A43U U129G	-2.71
